Assay results taken from US20090068202A1 (Genentech, published 2009).
Each block holds one binder with its values, some of them ahead of it. No end group written: not given here.

How the values were obtained:
[1] = biological target: T1, extracellular domain of human CD79b (huCD79becd) (human, UniProt P40259 29-159); test: Biacore surface plasmon resonance; huCD79becd immobilized on CM5 chip, IgG injected
T1 construct: Expressed in CHO cells
T1 sequence: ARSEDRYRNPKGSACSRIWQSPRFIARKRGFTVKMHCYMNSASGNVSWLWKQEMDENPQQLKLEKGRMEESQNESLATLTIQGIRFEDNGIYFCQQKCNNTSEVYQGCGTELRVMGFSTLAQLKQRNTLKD
Experimental: (§1) Binding of Fab and IgG variants of ch2F2, the 2F2-grafted “humanized” antibody (hu2F2 graft) or 2F2-grafted “humanized” antibody variant 7 (hu2F2.D7) to immobilized huCD79becd or CD79b-Fc or the 16 amino acid peptide containing the epitope for 2F2 was measured by surface plasma resonance. Affinity determinations were performed by surface plasmon resonance using a BIAcore™-2000. The antigen, huCD79becd or huCD79b-Fc was immobilized (approximately 50-200 RU) in 10 mM sodium acetate pH 4.8 on a CM5 sensor chip. In experiments that measured binding to the 16 amino acid peptide ([…]) (SEQ ID NO: 78) containing the epitope (amino acids 1-11 of SEQ ID NO: 78) for 2F2, the biotinylated peptide was captured (approximately 20 RU) on a streptavidin coated sensor chip. Purified 2F2-grafted “humanized” antibody variant (as Fab or IgG) (a 2-fold serial dilution of 0.5 to 1000 nM in PBST) was injected at a flow rate of 30 μL/min. Each sample was analyzed with 4-minute association and 10-minute disassociation. After each injection the chip was regenerated using 10 mM Glycine pH 1.7.
(§2) Binding response was corrected by subtracting a control flow cell from 2F2-grafted “humanized” antibody variant (as Fab or IgG) flow cells. A 1:1 Languir model of simultaneous fitting of kₒₙ and koff was used for kinetics analysis.

[2] = biological target: T2, human CD79b on BJAB cells (human, UniProt P40259 29-229); test: Scatchard analysis, I-125 tracer competed by unlabeled IgG on BJAB cells stably expressing cynomolgus CD79b and endogenous human CD79b; ch2F2 IgG; BJAB cells stably expressing cynomolgus CD79b and endogenous human CD79b
T2 construct: Endogenous CD79b of BJAB cells; also called PRO36249; endogenous human-CD79b
T2 sequence: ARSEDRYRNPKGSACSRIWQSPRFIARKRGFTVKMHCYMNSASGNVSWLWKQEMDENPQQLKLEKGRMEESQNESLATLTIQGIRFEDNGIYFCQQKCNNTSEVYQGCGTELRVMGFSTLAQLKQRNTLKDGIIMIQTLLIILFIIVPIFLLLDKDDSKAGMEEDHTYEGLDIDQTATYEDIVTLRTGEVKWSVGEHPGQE
Experimental: (§3) To further determine binding of the IgG variants of the 2F2-graft “humanized” antibody variant 7 (hu2F2.D7) having changes in HVR-L3, binding of iodinated anti-CD79b (with the same epitope as ch2F2) to BJAB cells expressing human CD79b and cynomologous CD79b using competition with unlabeled ch2F2 was analyzed and Scatchard analysis was performed.
(§4) For Scatchard analysis, 0.5 nM I¹²⁵ labeled anti-human CD79b with the same epitope as ch2F2 or 0.5 nM I¹²⁵ labeled 2F2-graft “humanized” antibody variant 7 (hu2F2.D7) was competed against unlabeled ch2F2 or hu2F2.D7, respectively, ranging from 50 to 0.02 nM (12 step 1:2 serial dilution) in the presence of a transfected BJAB line stably expressing cynomologous-CD79b and endogenous human-CD79b. After a four hour incubation at 4° C., cells were washed and cell pellet counts were read by a gamma counter (1470 WIZARD Automatic Gamma Counter; Perkin Elmer, Walthem, Mass.). All points were done in triplicate and counted for 10 minutes. The average CPM was used for Kd calculation using the New Ligand (Genentech, South San Francisco, Calif.) program.

[3] = biological target: T3, 16 amino acid peptide (ARSEDRYRNPKGSACK) containing the epitope for 2F2 (human, also: biotinylated, site not given here); test: Biacore surface plasmon resonance; biotinylated peptide captured on streptavidin chip, IgG injected; the sheet names the antigen '15mer peptide', legend and text name only the 16mer peptide (SEQ ID NO: 78)
T3 construct: Synthetic peptide; Captured as biotinylated peptide on a streptavidin sensor chip; also called 16mer peptide; test peptide
T3 peptide: ARSEDRYRNPKGSACK
Experimental: as §1, §2

[4] = biological target: T4, extracellular domain of human CD79b fused to Fc (huCD79becd-Fc) (human, UniProt P40259 29-159); test: Biacore surface plasmon resonance; huCD79becd-Fc immobilized on CM5 chip, IgG injected
T4 construct: Expressed in CHO cells; also called huCD79b-Fc; CD79b-Fc
T4 sequence: T1 sequence
Experimental: as §1, §2

[5] = biological target: T1, extracellular domain of human CD79b …; test: Biacore surface plasmon resonance; huCD79becd immobilized on CM5 chip, Fab injected
Experimental: as §1, §2

[6] = biological target: T3, 16 amino acid peptide …; test: Biacore surface plasmon resonance; biotinylated 16mer peptide captured on streptavidin chip, IgG injected
Experimental: as §1, §2

[7] = biological target: T2, human CD79b on BJAB cells; test: Scatchard analysis, I-125 hu2F2.D7 competed by unlabeled hu2F2.D7 IgG on BJAB cells stably expressing cynomolgus CD79b and endogenous human CD79b; hu2F2.D7 reformatted as IgG; BJAB cells stably expressing cynomolgus CD79b and endogenous human CD79b
Experimental: as §3, §4

Kd [1]: 1.4 nM | Kd [2]: 0.99 nM | Kd [3]: 2 nM | Kd [4]: 2.7 nM
B1: chimeric 2F2 antibody (ch2F2) IgG1 (antibody, V domains shown)
VH: QVQLQQPGAELVRPGASVKLSCKASGYTFTSYWMNWVKQRPGQGLEWIGMIDPSDSETHYNHIFKDKATLTVDKSSSTAYLQLSSLTSEDSAVYYCARNLYLWGQGTSVTVSL
VL: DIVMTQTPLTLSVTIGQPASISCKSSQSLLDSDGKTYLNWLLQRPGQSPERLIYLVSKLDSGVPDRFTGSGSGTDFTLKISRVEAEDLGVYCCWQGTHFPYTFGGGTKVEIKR

Kd [5]: 68 nM
B2: hu 2F2.D7 (Fab column) (Fab, V domains shown)
VH: EVQLVESGGGLVQPGGSLRLSCAASGYTFTSYWMNWVRQAPGKGLEWVGMIDPSDSETHYNHIFKDRFTISADTSKNTAYLQMNSLRAEDTAVYYCARNLYLWGQGTLVTVSS
VL: DIQMTQSPSSLSASVGDRVTITCKSSQSLLDSDGKTYLNWYQQKPGKAPKLLIYLVSKLDSGVPSRFSGSGSGTDFTLTISSLQPEDFATYYCFQGTHFPFTFGQGTKVEIKR
notes: also called 2F2-grafted humanized antibody variant 7 as purified Fab; copies: 1 + 1

Kd [1]: 3.9 nM | Kd [6]: 2.7 nM | Kd [7]: 2 nM
B3: 2F2-grafted "humanized" antibody variant 7 (hu2F2.D7), reformatted as IgG (antibody, V domains shown)
VH: B2 VH
VL: B2 VL
notes: also called humanized 2F2.D7
